By pKd is commonly meant −log10 of the Kd, conventionally taken in molar units. High values mean a low Kd, low ones a high Kd.

In this assay the target is Dut80α^G164S (Staphylococcus aureus phage 80α). The experiment in a line: BLI; as a1, buffer STL supplemented with 0.5 mM dUPNPP (baselines and dissociation without nucleotide); 1:1 model. (In BLI a coated tip is dipped into the sample, and binding shifts an interference pattern.)

pKd: −log10 of the molar value.

As to “Stl repressor from SaPIbov1 (natural protein)”, the pKd was below 6.00.

The values are drawn from paper PMC4914113, “Another look at the mechanism involving trimeric dUTPases in Staphylococcus aureus pathogenicity island induction involves novel players in the party” (Nucleic Acids Research, 2016).
